Measured values reported in PMC12208494, “The zinc metalloprotein MigC impacts cell wall biogenesis through interactions with an essential Mur ligase in Acinetobacter baumannii” (PLOS Pathogens, 2025).

What was measured:
Format in all cases: biochemical, Acinetobacter baumannii
[1] = substrate: Nc1nc2c(ncn2[C@@H]2O[C@H](COP(=O)(O)OP(=O)(O)OP(=O)(O)O)[C@@H](O)[C@H]2O)c(=O)[nH]1; assay: malachite green phosphate release; details: Zn-bound MigC (1 equivalent Zn), 2 mM MgCl2, 150 mM KCl, pH 7.4, 37 °C
[2] = substrate: Nc1ncnc2c1ncn2[C@@H]1O[C@H](COP(=O)(O)OP(=O)(O)OP(=O)(O)O)[C@@H](O)[C@H]1O; assay: malachite green phosphate release; details: Zn-bound MigC (1 equivalent Zn), 2 mM MgCl2, 150 mM KCl, pH 7.4, 37 °C
[3] = substrate: Nc1ncnc2c1ncn2[C@@H]1O[C@H](COP(=O)(O)OP(=O)(O)OP(=O)(O)O)[C@@H](O)[C@H]1O; assay: HPLC of UMAG formation; details: 200 µM UMA, 1 mM D-glutamate, 2 mM MgCl2, 500 µM GTP, BSA added (no MigC), pH 7.4, 37 °C

B1: MigC (A1S_0934) (Acinetobacter baumannii) (protein)
chain: MKLIAQKTVPTHIISGFLGAGKTTLLQHLLSQKPKDEVWAVLMNEFGQIGVDQQLLPQDQGYAVKELLGGCLCCSSQLPMHIALARLLSEQKPDRLFIEPTGLGHPSQLFDQLTEPHWQNSLAMRALVTVVDGSRLHDTNWVKQNLYEDQLKAAQIVVVSHADTMTFEDEQALVELKEEYQPYQQQWLKTEHGQLELAQIDVPARLTERSIQPLLKLQKQMTEAEVVKEIHQLPYHYVETAQGYMVAGWKFPKRWKFEFYALLDVLCAQQDWLRIKGIFNTDQGWKTFNFNPEQFNYKSGEEGIDNRIEMISQHEHDWLAFETELLACRIEQ
notes: pre-loaded with 1 equivalent Zn; UniProt ID is the one representing MigC in a homologue alignment and may be from another strain
Km [1]: 110 ± 14 µM
Km [2]: 51.1 ± 12 µM

B2: MurD (Acinetobacter baumannii ATCC 17978) (protein)
chain: MLIQRGGLKVVAGLGISGVSAVNFLHEQGYQVAVTDSRPTPPGHDQIPAGVKTSFGQLDQELLLQAEEIILSPGLAPQLPEIQAAIAKGISVVGDIQLLRRATDVPIVAITGSNAKSTVTTLIGLMAKDAGKKVAVGGNLGRPALDLLKDQPELLVLELSSFQLETTSHLNAEVAVVLNMSEDHLDRHGNMLGYHQAKHRIFQGAKKVVFNRDDALSRPLVPDTTPMQSFGLNAPDLNQYGVLRDADGTLWLACGLQRLIKSSDLYIQGMHNVANALACLALGEAIGLPMESMLETLKQFKGLEHRCEYVKTVHDVRYYNDSKGTNVGATLAAIDGLGAAIEVKKGKVALILGGQGKGQDFSPLRSSIEKYAKVVVLIGEDAPVIEQAIQGATKILHAATLKEAVELCQRETQAEDVVLLSPACASFDMFKSYNDRGQQFVACVNSLV
notes: full length, N-terminal 6xHis tag removed by TEV protease, E. coli BL21(DE3)
Km [3]: 149 ± 25 µM
